B1: ADAMTS4 (parent)
chain: HVDPEEPWSPCSARFITDFLDNGY

Variants of: B1
Experiment: protein stability index of a GFP-peptide fusion (GPS, HEK-293T) (PSI 1-6); higher = more stable
Details: c terminus: a fixed tail appended
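Further: lentivirally expressed fusions sorted by FACS into six bins by GFP to DsRed ratio, PSI derived from sequencing read proportions per bin multiplied by bin number.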

Protein stability index of substitutions, site by site:
C11: V 1.82; G 2.05; A 2.41; W 1.86; Q 2.18; I 1.79; D 2.05; N 1.9; P 2; F 2.1; M 1.6; H 2.06; Y 3.06; E 2; S 2.19; R 1.7; T 2.15; L 1.69; K 2.21
E6: H 1.74; Y 2.07; N 1.94; T 1.77; G 1.92; Q 2.24; K 1.64; R 2.44; C 2.21; F 2.19; V 1.79; M 2.59; S 2.43; P 2.72; W 2.57; D 1.76; I 1.56; L 2.05; A 1.85
P7: E 2.67; A 1.48; D 2.7; F 2.85; K 1.89; Q 1.72; T 1.9; R 2.14; Y 2.79; M 2.23; G 1.92; I 1.61; N 1.74; S 2.35; W 2.54; H 1.57; V 2.56; C 2.11; L 3.65
A13: E 2.1; C 2.54; D 2.35
P10: E 2.48; A 1.75; T 1.92; D 2.22; I 2.1; N 1.99; S 2.49; F 1.92; M 2.14; L 1.72; C 1.5; Q 2.1; W 2.08; V 1.74; K 2.21; R 1.83; G 1.88; Y 1.79; H 1.81
P4: A 1.63; H 2.21; T 1.8; K 1.87; W 1.69; Q 1.9; Y 1.98; E 2.07; F 1.63; D 2.11; M 1.77; L 1.63; S 1.9; R 2.42; V 1.62; C 2.23; G 2.9; N 1.95; I 1.77
S9: D 2.79; F 1.93; T 1.79; K 1.97; Q 1.62; V 1.66; A 2.05; W 1.75; M 1.77; R 1.93; I 2.29; E 3.19; Y 1.85; G 2.24; H 2.17; L 1.67; C 2.08; P 2.32; N 1.67
S12: A 1.68; W 1.67; P 1.4; Y 1.83; T 1.47; E 1.88; N 2.05; Q 2.1; V 2.01; I 2.16; G 1.61; C 1.8; D 2.39; R 1.97; F 1.86; L 2.12; H 2.31; M 1.57; K 1.55
V2: K 2.62; D 3; I 2.56; F 2.14; E 3.19; N 2.48; Y 2.05; H 2.37; P 2.23; Q 2.16; S 2.55; R 2.4; L 2.23; G 2.9; T 2.2; M 2.75; A 2.36; C 2.09; W 2.08
D3: H 1.98; Q 2.49; Y 1.11; L 1.78; V 1.77; W 1.34; P 1.85; F 1.79; K 1.76; A 1.69; T 2.04; I 1.55

Source: the supplement of paper PMC10567573
